# Data from US12703750 (NORTHWESTERN UNIVERSITY, dated 2026).
# Changes are numbered by the printed parent chain. In names and notes the source's numbering stands.
# T1: Human IL13Rα2 (human, UniProt Q14627 27-343, limits assumed)
# T1 construct: also called human recombinant IL13Rα2; Human IL13Ra2
# T1 sequence (looked up): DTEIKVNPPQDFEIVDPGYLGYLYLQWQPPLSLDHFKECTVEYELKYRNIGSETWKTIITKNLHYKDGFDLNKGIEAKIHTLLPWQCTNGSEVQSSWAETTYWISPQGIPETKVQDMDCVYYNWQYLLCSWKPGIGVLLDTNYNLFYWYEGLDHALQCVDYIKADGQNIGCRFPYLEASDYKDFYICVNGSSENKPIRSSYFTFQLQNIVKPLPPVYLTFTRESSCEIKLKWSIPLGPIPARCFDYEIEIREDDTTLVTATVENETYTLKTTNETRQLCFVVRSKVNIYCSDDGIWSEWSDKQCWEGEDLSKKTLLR
# T2: human recombinant IL13Rα2hFc (cat #7147-IR-100, R&D Systems) (human, UniProt Q14627 27-343)
# T2 construct: Bought; also called recombinant human IL13Ra2; not shown: human Fc ('hFc') of the bought fusion protein
# T2 sequence (looked up): T1 sequence (looked up)
# B1: Chimeric antibody (VH and VL of murine Ab clone 47 in human constant regions) (antibody, V domains shown)
# VH: QVQLQQPGAELVRPGASVKLSCKASGYTFSNYLMNWVKQRPEQDLDWIGRIDPYDGDIDYNQNFKDKAILTVDKSSSTAYMQLSSLTSEDSAVYYCARGYGTAYGVDYWGQGTSVTVSS
# VL: not shown
# notes: Full-length IgG, murine variable regions with human constant regions; also called chimeric IgG; Chimeric Ab
# B2: Humanized antibody VH1 + VL1 (antibody, human IgG1, kappa, V domains shown)
# VH: QVQLVQSGAEVKKPGSSVKVSCKASGYTFSNYLMNWVRQAPGQGLEWMGRIDPYDGDIDYNQNFKDRVTITADKSTSTAYMELSSLRSEDTAVYYCARGYGTAYGVDYWGQGTLVTVSS
# VL: DIVMTQSPDSLAVSLGERATINCRASESVDNYGISFMNWYQQKPGQPPKLLIYAASRQGSGVPDRFSGSGSGTDFTLTISSLQAEDVAVYYCQQSKEVPWTFGGGTKLEIKR
# notes: also called Humanized VH1-VL1; U3621EI120 VH1+VL1
# B3: Ab Vh1-VL1W100F (antibody, human IgG1, kappa, V domains shown)
# VH: B2 VH
# VL: B2 VL with W100F
# notes: also called single mutant W100F
# B4: Humanized antibody VH1-VL1 Q94E (antibody, human IgG1, kappa, V domains shown)
# VH: B2 VH
# VL: B2 VL with Q94E
# B5: Humanized antibody VH1 D52E-VL1 (antibody, human IgG1, kappa, V domains shown)
# VH: B2 VH with D52E
# VL: B2 VL
# notes: also called VH1 MD52E-VL1
# B6: Humanized antibody VH1-VL1 Q58E (antibody, human IgG1, kappa, V domains shown)
# VH: B2 VH
# VL: B2 VL with Q58E
# B7: Humanized antibody VH1-VL1 M37A (antibody, human IgG1, kappa, V domains shown)
# VH: B2 VH
# VL: B2 VL with M37A
# B8: Humanized antibody VH1 M34A-VL1 (antibody, human IgG1, kappa, V domains shown)
# VH: B2 VH with M34A
# VL: B2 VL
# notes: Antibody purified on protein A
# B9: Ab Vh1G56A-VL1W100F (antibody, human IgG1, kappa, V domains shown)
# VH: B2 VH with G56A
# VL: B2 VL with W100F
# notes: also called double mutant
# B10: Humanized antibody VH1(G56A) + VL1 (antibody, human IgG1, kappa, V domains shown)
# VH: B2 VH with G56A
# VL: B2 VL
# notes: also called VHG56A-VL1; Humanized VHG56A-VL1
# B11: Murine version of the BTE (scFv of anti-CD3 Okt3 and scFv of the murine anti-IL13Rα2 antibody) (bispecific antibody, V domains shown, not shown: small tags and cut ends)
# VH: B1 VH
# VL: not shown
# notes: Control BTE; also called Okt3BTE; chimeric BTE using the mouse monoclonal Ab VH and VL domains
# B12: Humanized antibody VH2 + VL2 (antibody, human IgG1, kappa, V domains shown)
# VH: B2 VH with S16A, G44R, A72R, K74T, T76A
# VL: DIQMTQSPSSLSASVGDRVTITCRASESVDNYGISFMNWYQQKPGKAPKLLIYAASRQGSGVPSRFSGSGSGTDFTLTISSLQPEDFATYYCQQSKEVPWTFGGGTKLEIKR
# B13: Humanized antibody VH2 + VL3 (antibody, human IgG1, kappa, V domains shown)
# VH: B2 VH with S16A, G44R, A72R, K74T, T76A
# VL: EIVLTQSPATLSLSPGERATLSCRASESVDNYGISFMNWYQQKPGQAPRLLIYAASRQGSGIPARFSGSGSGTDFTLTISSLEPEDFAVYYCQQSKEVPWTFGGGTKLEIKR
# notes: also called U3621EI120 VH2+VL3
# B14: Humanized antibody VH2 + VL4 (antibody, human IgG1, kappa, V domains shown)
# VH: B2 VH with S16A, G44R, A72R, K74T, T76A
# VL: B13 VL with L4M, L13V, D74E, E83Q, P84S
# B15: Humanized antibody VH3 + VL3 (antibody, human IgG1, kappa, V domains shown)
# VH: B2 VH with S16A, I70M, A72R, K74T, A79V
# VL: B13 VL
# B16: Humanized antibody VH2 + VL1 (antibody, human IgG1, kappa, V domains shown)
# VH: B2 VH with S16A, G44R, A72R, K74T, T76A
# VL: B2 VL
# B17: Humanized antibody VH1 + VL3 (antibody, human IgG1, kappa, V domains shown)
# VH: B2 VH
# VL: B13 VL
# B18: Humanized antibody VH3 + VL4 (antibody, human IgG1, kappa, V domains shown)
# VH: B2 VH with S16A, I70M, A72R, K74T, A79V
# VL: B13 VL with L4M, L13V, D74E, E83Q, P84S
# B19: Humanized antibody VH1 + VL4 (antibody, human IgG1, kappa, V domains shown)
# VH: B2 VH
# VL: B13 VL with L4M, L13V, D74E, E83Q, P84S
# notes: also called U3621EI120 VH1+VL4
# B20: Humanized antibody VH4 + VL3 (antibody, human IgG1, kappa, V domains shown)
# VH: B2 VH with S16A, P41T, A72R, D73N, K74T, T76I
# VL: B13 VL
# B21: Humanized antibody VH1 + VL2 (antibody, human IgG1, kappa, V domains shown)
# VH: B2 VH
# VL: B12 VL
# B22: Humanized antibody VH3 + VL1 (antibody, human IgG1, kappa, V domains shown)
# VH: B2 VH with S16A, I70M, A72R, K74T, A79V
# VL: B2 VL
# B23: Humanized antibody VH4 + VL4 (antibody, human IgG1, kappa, V domains shown)
# VH: B2 VH with S16A, P41T, A72R, D73N, K74T, T76I
# VL: B13 VL with L4M, L13V, D74E, E83Q, P84S
# B24: Humanized antibody VH4 + VL1 (antibody, human IgG1, kappa, V domains shown)
# VH: B2 VH with S16A, P41T, A72R, D73N, K74T, T76I
# VL: B2 VL
# B25: Humanized antibody VH4 + VL2 (antibody, human IgG1, kappa, V domains shown)
# VH: B2 VH with S16A, P41T, A72R, D73N, K74T, T76I
# VL: B12 VL
# B26: Humanized antibody VH3 + VL2 (antibody, human IgG1, kappa, V domains shown)
# VH: B2 VH with S16A, I70M, A72R, K74T, A79V
# VL: B12 VL
# Molecular target: T1, Human IL13Rα2
# Assay: SPR Biacore T200, antibody Fc-captured, IL13Rα2 as analyte
Binder,Kd,koff,kon
B1,1440 pM,0.000523 s⁻¹,363000 M⁻¹ s⁻¹

# Molecular target: T1, Human IL13Rα2
# Assay: plate ELISA on human recombinant IL13Rα2, OD405, N=4
Binder,EC50 (read off the curve),binding result
B2,~0.02 µg/mL,
B3,~0.03 µg/mL,
B4,~0.01 µg/mL,
B5,~0.04 µg/mL,
B6,,binds
B7,,binds
B8,~0.03 µg/mL,

# Molecular target: T1, Human IL13Rα2
# Assay: plate ELISA on human IL13Rα2, OD405, N=4 [continued) B]
row,Binder,EC50 (read off the curve)
1,B2,~0.05 µg/mL
2,B3,~0.03 µg/mL
3,B9,~0.03 µg/mL

# Molecular target: T1, Human IL13Rα2
# Assay: SPR Biacore T200, antibody captured, IL13Rα2 analyte 0.9375-60 nM
Binder,Kd,koff,kon
B2,257 pM,0.00019 s⁻¹,740000 M⁻¹ s⁻¹
B10,215 pM,0.000156 s⁻¹,727000 M⁻¹ s⁻¹

# Molecular target: T2, human recombinant IL13Rα2hFc (cat …)
# Assay: plate ELISA on coated IL13Rα2hFc (1 µg/mL), detection with anti-6xHis-HRP, OD450 [continued) D]
row,Binder,EC50 (read off the curve)
1,B11,~0.5 µg/mL

# Molecular target: T1, Human IL13Rα2
# Assay: SPR Biacore 8K affinity ranking, antibody supernatant Fc-captured, 100 nM IL13Rα2 analyte
Binder,Kd,koff,kon
B1,1070 pM,0.000544 s⁻¹,511000 M⁻¹ s⁻¹
B2,768 pM,0.000329 s⁻¹,429000 M⁻¹ s⁻¹
B12,857 pM,0.000555 s⁻¹,648000 M⁻¹ s⁻¹
B13,1170 pM,0.000761 s⁻¹,649000 M⁻¹ s⁻¹
B14,1350 pM,0.000748 s⁻¹,555000 M⁻¹ s⁻¹
B15,1130 pM,0.000702 s⁻¹,620000 M⁻¹ s⁻¹
B16,704 pM,0.000417 s⁻¹,593000 M⁻¹ s⁻¹
B17,900 pM,0.000463 s⁻¹,514000 M⁻¹ s⁻¹
B18,984 pM,0.000615 s⁻¹,625000 M⁻¹ s⁻¹
B19,599 pM,0.000269 s⁻¹,449000 M⁻¹ s⁻¹
B20,877 pM,0.000675 s⁻¹,769000 M⁻¹ s⁻¹
B21,758 pM,0.000312 s⁻¹,412000 M⁻¹ s⁻¹
B22,661 pM,0.000595 s⁻¹,901000 M⁻¹ s⁻¹
B23,594 pM,0.000501 s⁻¹,844000 M⁻¹ s⁻¹
B24,727 pM,0.000424 s⁻¹,583000 M⁻¹ s⁻¹
B25,597 pM,0.000445 s⁻¹,746000 M⁻¹ s⁻¹
B26,698 pM,0.000595 s⁻¹,852000 M⁻¹ s⁻¹

# Molecular target: T1, Human IL13Rα2
# Assay: plate ELISA on human recombinant IL13Rα2, OD405, N=3
row,Binder,EC50 (read off the curve)
1,B1,~0.03 µg/mL
2,B2,~0.02 µg/mL
3,B10,~0.02 µg/mL

# Molecular target: T1, Human IL13Rα2
# Assay: SPR Biacore T200, 25 C, antibody captured on Protein A chip, IL13Ra2 analyte 0.625-80 nM
Binder,Kd,koff,kon
B3,326 pM,0.000334 s⁻¹,1.03e+06 M⁻¹ s⁻¹
B9,277 pM,0.000284 s⁻¹,1.02e+06 M⁻¹ s⁻¹

# Molecular target: T1, Human IL13Rα2
# Assay: SPR Biacore T200, purified IgG Fc-captured, IL13Rα2 as analyte
Binder,Kd,koff,kon
B1,1450 pM,0.000477 s⁻¹,330000 M⁻¹ s⁻¹
B2,283 pM,0.000191 s⁻¹,676000 M⁻¹ s⁻¹
B13,513 pM,0.00042 s⁻¹,820000 M⁻¹ s⁻¹
B19,297 pM,0.00022 s⁻¹,741000 M⁻¹ s⁻¹
